Source: patent US20200102387A1 (CELGENE, published 2020)
Changes are numbered by the printed parent chain.

T1: mouse SIRPα on cells (mouse, UniProt P97797 32-513)
T1 construct: whole, on cells; also called mouse SIRPα-CHO-K1; Ms SIRPα-CHO-K1
T1 sequence (looked up): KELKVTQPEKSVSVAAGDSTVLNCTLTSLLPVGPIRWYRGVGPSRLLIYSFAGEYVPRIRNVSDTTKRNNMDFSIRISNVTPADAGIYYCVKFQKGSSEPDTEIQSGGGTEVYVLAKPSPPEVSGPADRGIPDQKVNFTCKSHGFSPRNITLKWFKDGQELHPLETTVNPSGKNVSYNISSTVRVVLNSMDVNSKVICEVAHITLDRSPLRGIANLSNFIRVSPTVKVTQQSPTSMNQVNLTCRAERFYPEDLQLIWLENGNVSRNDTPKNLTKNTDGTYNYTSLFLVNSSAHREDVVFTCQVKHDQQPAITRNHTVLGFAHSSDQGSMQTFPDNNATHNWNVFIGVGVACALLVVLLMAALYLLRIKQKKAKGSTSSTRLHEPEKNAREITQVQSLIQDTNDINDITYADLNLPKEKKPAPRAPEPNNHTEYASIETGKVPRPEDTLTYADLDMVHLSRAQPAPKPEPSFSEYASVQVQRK

T2: cynomolgus SIRPα on cells (cynomolgus, UniProt P78324 31-373 (human entry))
T2 construct: also called cyno SIRPα-CHO; Cyno SIRPα-CHO-K1; not shown: Transmembrane and cytoplasmic region of cynomolgus SIRPα
T2 chain: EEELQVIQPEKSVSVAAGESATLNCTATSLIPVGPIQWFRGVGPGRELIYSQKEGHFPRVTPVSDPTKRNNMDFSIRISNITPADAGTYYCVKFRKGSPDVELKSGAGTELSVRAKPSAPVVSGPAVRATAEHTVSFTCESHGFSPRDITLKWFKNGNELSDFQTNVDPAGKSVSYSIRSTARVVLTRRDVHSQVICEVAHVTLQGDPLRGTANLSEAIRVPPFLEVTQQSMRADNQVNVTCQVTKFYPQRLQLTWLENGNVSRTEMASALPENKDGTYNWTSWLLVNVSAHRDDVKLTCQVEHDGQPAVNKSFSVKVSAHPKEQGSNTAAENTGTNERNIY

B1: SIRPAB-17 (antibody, human IgG1, kappa, V domains shown)
VH: QVQLQESGPGLVKPSQTLSLTCTVSGGSISSGGYYWSWIRQHPGKGLEWIGAIYYSGPIYYNPSLKSRVTISVDTSKNQFSLKLSSVTAADTAVYYCAREGYHSGMDVWGQGTTVTVSS
VL: DIQMTQSPSSLSASVGDRVTITCQASQDISNYLNWYQQKPGKAPKLLIYDASNLATGVPSRFSGSGSGTDFTFTISSLQPEDIATYYCQQFAYLPWTFGGGTKVEIKR
B2: SIRPAB-9 (antibody, human IgG1, kappa, V domains shown)
VH: QVQLVQSGAEVKKPGASVKVSCKASGYTFGGYGISWVRQAPGQGLEWMGWISAYGGETNYAQKLQGRVTMTTDTSTSTAYMELRSLRSDDTAVYYCAREAGSSWYDFDLWGRGTLVTVSS
VL: DIQMTQSPSSVSASVGDRVTITCRASQGISSWLAWYQQKPGKAPKLLIYAASNLQSGVPSRFSGSGSGTDFTLTISSLQPEDFATYYCQQGASFPITFGGGTKVEIKR
B3: SIRPAB-10 (antibody, human IgG1, kappa, V domains shown)
VH: B2 VH with G30T, G33P, S52Y, E57N
VL: B2 VL
B4: SIRPAB-12 (antibody, human IgG1, kappa)
light: DIQMTQSPSSVSASVGDRVTITCRASQGISSWLAWYQQKPGKAPKLLIYAASNLQSGVPSRFSGSGSGTDFTLTISSLQPEDFATYYCQQGASFPITFGGGTKVEIKRTVAAPSVFIFPPSDEQLKSGTASVVCLLNNFYPREAKVQWKVDNALQSGNSQESVTEQDSKDSTYSLSSTLTLSKADYEKHKVYACEVTHQGLSSPVTKSFNRGEC
heavy: not shown
B5: SIRPAB-11 (antibody, human IgG1, kappa)
light: B4 light
heavy: not shown
notes: also called SIRPAB-11-IgG1; SIRPAB-11 IgG1 antibody
B6: SIRPAB-11-AAS (antibody, human IgG1, kappa, L234A L235A)
light: B4 light
heavy: QVQLVQSGAEVKKPGASVKVSCKASGYTFRGYGISWVRQAPGQGLEWMGWISAYGGETNYAQKLQGRVTMTTDTSTSTAYMELRSLRSDDTAVYYCAREAGSSWYDFDLWGRGTLVTVSSASTKGPSVFPLAPSSKSTSGGTAALGCLVKDYFPEPVTVSWNSGALTSGVHTFPAVLQSSGLYSLSSVVTVPSSSLGTQTYICNVNHKPSNTKVDKKVEPKSCDKTHTCPPCPAPEAAGGPSVFLFPPKPKDTLMISRTPEVTCVVVSVSHEDPEVKFNWYVDGVEVHNAKTKPREEQYNSTYRVVSVLTVLHQDWLNGKEYKCKVSNKALPAPIEKTISKAKGQPREPQVYTLPPSREEMTKNQVSLTCLVKGFYPSDIAVEWESNGQPENNYKTTPPVLDSDGSFFLYSKLTVDKSRWQQGNVFSCSVMHEALHNHYTQKSLSLSPGK
notes: also called SIRPAB-11-IgG1-AAS

Target: T1, mouse SIRPα on cells
Experiment: cell binding, Ms SIRPα-CHO-K1 cells, 100 nM antibody

Row | Binder | fold increase over background (100 nM) [fold]
1 | B1 | 449

Target: T3, human SIRPα on cells (human, UniProt P78324 31-504)
T3 construct: whole, on cells; also called human SIRPα-CHO; Hu SIRPα-CHO-K1
Experiment: cell binding, Hu SIRPα-CHO-K1 cells, 100 nM antibody

Row | Binder | fold increase over background (100 nM) [fold]
2 | B2 | 2650
3 | B3 | 1170
4 | B4 | 2350
5 | B5 | 1890

Target: T1, mouse SIRPα on cells
Experiment: flow cytometry of mouse CD11b positive cells, FL2-H anti-human PE; concentration not given

Row | Binder | binding result
6 | B4 | no binding
7 | B5 | no binding

Target: T4, human SIRPγ-Fc (human)
T4 construct: a signal peptide may be part of the entry
Experiment: BLI Octet, antigen-Fc on biosensor;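 for result: antigen captured on the biosensor tip and then immersed in solutions of the test antibodies, which act as the analyte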

Row | Binder | Kd [nM] | koff [s⁻¹] | kon [M⁻¹ s⁻¹]
8 | B2 | 1.37 | 0.00161 | 1.17e+06
9 | B3 | 0.85 | 0.00123 | 1.45e+06
10 | B4 | 1.49 | 0.00218 | 1.46e+06
11 | B5 | 0.13 | 0.000205 | 1.57e+06

Target: T5, human SIRPα v4-Fc (SIRPα4 extracellular domain fused to human IGHG1_Fc) (human, UniProt P78324 31-373; P0DOX5 223-449 = IgG part)
T5 construct: as m38; also called V4 (e.g. SIRPα4)
Experiment: BLI Octet, antigen-Fc on biosensor;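 for result: antigen captured on the biosensor tip and then immersed in solutions of the test antibodies, which act as the analyte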

Row | Binder | Kd [nM] | koff [s⁻¹] | kon [M⁻¹ s⁻¹]
12 | B2 | 7.69 | 0.00777 | 1.01e+06
13 | B3 | 1.93 | 0.00267 | 1.38e+06
14 | B4 | 8.13 | 0.0109 | 1.35e+06
15 | B5 | 1.52 | 0.00228 | 1.5e+06

Target: T6, cyno SIRPα-Fc (cynomolgus)
T6 construct: a signal peptide may be part of the entry
Experiment: BLI Octet, antigen-Fc on biosensor;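 for result: antigen captured on the biosensor tip and then immersed in solutions of the test antibodies, which act as the analyte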

Row | Binder | Kd [nM] | koff [s⁻¹] | kon [M⁻¹ s⁻¹]
16 | B2 | 18.8 | 0.0212 | 1.13e+06
17 | B3 | 4.89 | 0.00683 | 1.4e+06
18 | B5 | 4.9 | 0.00869 | 1.77e+06

Target: T7, human SIRPα v2-Fc (SIRPα2 extracellular domain fused to human IGHG1_Fc) (human, UniProt P78324 31-373; P0DOX5 223-449 = IgG part)
T7 construct: as m38; also called V2 (e.g. SIRPα2); SIRPα V2:ESE
Experiment: BLI Octet, antigen-Fc on biosensor;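 for result: antigen captured on the biosensor tip and then immersed in solutions of the test antibodies, which act as the analyte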

Row | Binder | Kd [nM] | koff [s⁻¹] | kon [M⁻¹ s⁻¹]
19 | B2 | 23 | 0.0185 | 810000
20 | B3 | 1.06 | 0.00132 | 1.25e+06
21 | B4 | 15.4 | 0.0151 | 980000
22 | B5 | 4.4 | 0.00559 | 1.27e+06

Target: T8, human SIRPα v3-Fc (SIRPα3 extracellular domain fused to human IGHG1_Fc) (human, UniProt P78324 31-373; P0DOX5 223-449 = IgG part)
T8 construct: as m38; also called V3 (e.g. SIRPα3)
Experiment: BLI Octet, antigen-Fc on biosensor

Row | Binder | Kd [nM] | koff [s⁻¹] | kon [M⁻¹ s⁻¹]
23 | B2 | 0.53 | 0.000515 | 980000
24 | B3 | 0.21 | 0.000261 | 1.24e+06
25 | B4 | 0.53 | 0.000694 | 1.31e+06
26 | B5 | 0.145 | 0.0002 | 1.38e+06

Target: T9, human SIRPα v5-Fc (SIRPα5 extracellular domain fused to human IGHG1_Fc) (human, UniProt P78324 31-373; P0DOX5 223-449 = IgG part)
T9 construct: as m38; also called V5 (e.g. SIRPα5)
Experiment: BLI Octet, antigen-Fc on biosensor

Row | Binder | Kd [nM] | koff [s⁻¹] | kon [M⁻¹ s⁻¹]
27 | B2 | 4.75 | 0.00462 | 970000
28 | B3 | 1.58 | 0.00178 | 1.13e+06
29 | B4 | 4.87 | 0.00697 | 1.43e+06
30 | B5 | 0.611 | 0.00106 | 1.73e+06

Target: T10, human SIRPα v1-Fc (SIRPα1 extracellular domain fused to human IGHG1_Fc) (human, UniProt P78324 31-373; P0DOX5 223-449 = IgG part)
T10 construct: also called V1 (e.g. SIRPα1); SIRPα V1: DLN
Experiment: BLI Octet, antigen-Fc on biosensor

Row | Binder | Kd [nM] | koff [s⁻¹] | kon [M⁻¹ s⁻¹]
31 | B2 | 0.714 | 0.000757 | 1.06e+06
32 | B3 | 0.25 | 0.000345 | 1.4e+06
33 | B4 | 0.81 | 0.00107 | 1.31e+06
34 | B5 | 0.13 | 0.0002 | 1.49e+06

Target: T11, human SIRPβ-Fc (human)
T11 construct: a signal peptide may be part of the entry
Experiment: BLI Octet, antigen-Fc on biosensor

Row | Binder | Kd [nM] | koff [s⁻¹] | kon [M⁻¹ s⁻¹]
35 | B2 | 2.79 | 0.00284 | 1.02e+06
36 | B3 | 0.34 | 0.000477 | 1.4e+06
37 | B4 | 3.35 | 0.00445 | 1.33e+06
38 | B5 | 0.32 | 0.000473 | 1.49e+06

Target: T12, mouse SIRPα-Fc (mouse)
T12 construct: a signal peptide may be part of the entry; also called Ms; Ms SIRPα-Fc
Experiment: BLI Octet, antigen-Fc on biosensor

Row | Binder | binding result
39 | B2 | no binding
40 | B3 | no binding
41 | B4 | no binding
42 | B5 | no binding

Target: T13, human SIRPα v6-Fc (SIRPα6 extracellular domain fused to human IGHG1_Fc) (human, UniProt P78324 31-373; P0DOX5 223-449 = IgG part)
T13 construct: as m38; also called V6 (e.g. SIRPα6)
Experiment: BLI Octet, antigen-Fc on biosensor

Row | Binder | Kd [nM] | koff [s⁻¹] | kon [M⁻¹ s⁻¹]
43 | B2 | 1.56 | 0.00182 | 1.17e+06
44 | B3 | 0.38 | 0.000491 | 1.28e+06
45 | B4 | 1.58 | 0.00256 | 1.63e+06
46 | B5 | 0.183 | 0.000356 | 1.94e+06

Target: T14, NOD/SCID mouse SIRPα-Fc (mouse (NOD/SCID))
T14 construct: a signal peptide may be part of the entry; also called NOD/SCID Ms SIRPα-Fc
T14 sequence (chain, as listed by the source limits assumed): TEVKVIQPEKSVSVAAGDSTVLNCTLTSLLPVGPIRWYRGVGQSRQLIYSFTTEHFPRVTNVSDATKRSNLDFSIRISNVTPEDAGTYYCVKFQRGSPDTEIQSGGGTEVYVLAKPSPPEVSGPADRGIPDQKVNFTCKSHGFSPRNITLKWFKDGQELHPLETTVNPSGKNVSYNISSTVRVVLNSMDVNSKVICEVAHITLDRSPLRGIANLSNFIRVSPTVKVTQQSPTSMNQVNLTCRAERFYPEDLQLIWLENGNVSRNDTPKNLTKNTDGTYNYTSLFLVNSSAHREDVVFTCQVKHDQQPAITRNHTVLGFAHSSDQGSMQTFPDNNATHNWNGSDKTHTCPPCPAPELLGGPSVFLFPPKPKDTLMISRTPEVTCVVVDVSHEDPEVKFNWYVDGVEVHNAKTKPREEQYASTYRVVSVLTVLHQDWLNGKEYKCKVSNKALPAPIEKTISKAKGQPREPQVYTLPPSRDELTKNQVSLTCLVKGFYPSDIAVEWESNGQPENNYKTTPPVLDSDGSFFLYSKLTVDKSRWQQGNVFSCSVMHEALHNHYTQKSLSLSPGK
Experiment: BLI Octet, antigen-Fc on biosensor

Row | Binder | Kd [nM] | koff [s⁻¹] | kon [M⁻¹ s⁻¹]
47 | B1 | 152 | 0.0228 | 150000

Target: T12, mouse SIRPα-Fc
Experiment: BLI Octet, antigen-Fc on biosensor
Remark: another data set of the same source

Row | Binder | Kd [nM] | koff [s⁻¹] | kon [M⁻¹ s⁻¹]
48 | B1 | 17.3 | 0.00373 | 220000

Target: T2, cynomolgus SIRPα on cells
Experiment: cell binding, Cyno SIRPα-CHO-K1 cells, 100 nM antibody

Row | Binder | fold increase over background (100 nM) [fold]
49 | B2 | 2300
50 | B3 | 1070
51 | B4 | 2220
52 | B5 | 1950

Target: T15, FcγR1 (CD64) (human, UniProt P12314 16-374)
T15 construct: whole, on cells
T15 sequence (P12314 16-374): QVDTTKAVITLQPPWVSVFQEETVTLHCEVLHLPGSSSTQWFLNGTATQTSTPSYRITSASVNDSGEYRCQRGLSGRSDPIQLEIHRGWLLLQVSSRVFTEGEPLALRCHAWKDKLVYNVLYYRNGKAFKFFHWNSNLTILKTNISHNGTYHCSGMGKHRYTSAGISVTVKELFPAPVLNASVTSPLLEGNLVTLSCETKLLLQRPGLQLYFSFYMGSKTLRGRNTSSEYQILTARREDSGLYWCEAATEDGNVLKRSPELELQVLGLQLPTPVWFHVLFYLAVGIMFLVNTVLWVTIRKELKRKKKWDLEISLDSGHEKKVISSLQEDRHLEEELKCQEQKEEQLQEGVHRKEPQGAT
Experiment: cell binding, FcγR-engineered HEK293 cells

Row | Binder | EC50 [nM]
53 | B6 | 3180

Target: T16, FcγR3A (CD16aV158) (human, UniProt P08637 17-254)
T16 construct: whole, on cells
T16 sequence (P08637 17-254 F176V): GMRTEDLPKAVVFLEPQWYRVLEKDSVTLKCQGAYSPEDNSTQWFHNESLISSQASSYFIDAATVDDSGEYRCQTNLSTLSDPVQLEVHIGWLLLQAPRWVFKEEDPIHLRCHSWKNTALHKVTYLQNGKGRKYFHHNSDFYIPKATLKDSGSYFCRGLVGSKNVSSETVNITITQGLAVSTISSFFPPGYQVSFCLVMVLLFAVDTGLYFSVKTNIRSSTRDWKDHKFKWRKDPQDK
Experiment: cell binding, FcγR-engineered HEK293 cells

Row | Binder | EC50 [nM]
54 | B6 | 15100
